Molecular target: human alpha-thrombin (human, UniProt P00734;P00734 328-363;364-622)
Assay: centrifugation separation, free thrombin by fibrinogen-Au NP assay, Scatchard; graphene oxide carrier; 100 uM BSA; PBS (1X: 137 mM NaCl, 2.7 mM KCl, 10 mM Na2HPO4, 1.8 mM KH2PO4, pH 7.4) with 100 uM BSA, 30 min; 100 pM Supra-TBA15/29, thrombin 0-1 nM; temperature not stated

B1: Supra-TBA15/29-GO (sTBA15 + sTBA29 network on graphene oxide) (mixed)
DNA 1: AAAAAAAAAAAAAAAAAAAACGACCTGTACGACTCTTTTTTCAGGGTTGGTGTGGTTGGCTGATTTTTATCTTCACGAGCACT
DNA 2: GAGTCGTACAGGTCGTTTTTAGTCCGTGGTAGGGCAGGTTGGGGTGACTTTTTTAGTGCTCGTGAAGATAAAAAAAAAAAAAAAAAAAA
modifications: adsorbed on graphene oxide through A20 tails (40 ug/mL GO, 60 C)
Kd: 19 pM
